According to publication PMC5113752 (Protein expression and purification, 2015):

Biological target: the molecule itself
Assay: cross-linking

B1: p7 viroporin from hepatitis C virus strain H77 genotype 1a, in proteoliposomes (natural protein, hepatitis C virus genotype 1a strain H77, UniProt P27958 747-809, looked up)
chain: ALENLVILNAASLAGTHGLVSFLVFFCFAWYLKGRWVPGAVYALYGMWPLLLLLLALPQRAYA
- stoichiometry N: 6
